Measurements as given in article doi:10.1101/640771 (bioRxiv, 2019).

Target: T1, ALFA-tagged target immobilised for SPR with NbALFA (TST-NEDD8-ALFA or GFP-ALFA) (synthetic (designed ALFA-tag))
T1 chain: SRLEEELRRRLTE
Assay: SPR

B1: NbALFA (non-tagged) (VHH)
VHH: EVQLQESGGGLVQPGGSLRLSCTASGVTISALNAMAMGWYRQAPGERRVMVAAVSERGNAMYRESVQGRFTVTRDFTNKMVSLQMDNLKPEDTAVYYCHVLEDRVDSFHDYWGQGTQVTVSS
Question: For B1, which Kd is on record?
Answer: ~0.026 nM
